# In US20230414780A1:
# Key:
# [1] = target: murine TfR expressed by murine neuroblastoma Neuro-2a cells (mouse) (UniProt Q62351); assay: cell-based or functional assay
# [2] = target: murine TfR expressed by murine neuroblastoma Neuro-2a cells (mouse) (UniProt Q62351); assay: competition with C5-Alexa680 (100 nM) on living Neuro-2a cells, 3 hrs at 37 C, flow cytometry; Ki/app, mean ± SD
# Sequence of murine TfR expressed by murine neuroblastoma Neuro-2a cells (mouse) (Q62351 whole entry): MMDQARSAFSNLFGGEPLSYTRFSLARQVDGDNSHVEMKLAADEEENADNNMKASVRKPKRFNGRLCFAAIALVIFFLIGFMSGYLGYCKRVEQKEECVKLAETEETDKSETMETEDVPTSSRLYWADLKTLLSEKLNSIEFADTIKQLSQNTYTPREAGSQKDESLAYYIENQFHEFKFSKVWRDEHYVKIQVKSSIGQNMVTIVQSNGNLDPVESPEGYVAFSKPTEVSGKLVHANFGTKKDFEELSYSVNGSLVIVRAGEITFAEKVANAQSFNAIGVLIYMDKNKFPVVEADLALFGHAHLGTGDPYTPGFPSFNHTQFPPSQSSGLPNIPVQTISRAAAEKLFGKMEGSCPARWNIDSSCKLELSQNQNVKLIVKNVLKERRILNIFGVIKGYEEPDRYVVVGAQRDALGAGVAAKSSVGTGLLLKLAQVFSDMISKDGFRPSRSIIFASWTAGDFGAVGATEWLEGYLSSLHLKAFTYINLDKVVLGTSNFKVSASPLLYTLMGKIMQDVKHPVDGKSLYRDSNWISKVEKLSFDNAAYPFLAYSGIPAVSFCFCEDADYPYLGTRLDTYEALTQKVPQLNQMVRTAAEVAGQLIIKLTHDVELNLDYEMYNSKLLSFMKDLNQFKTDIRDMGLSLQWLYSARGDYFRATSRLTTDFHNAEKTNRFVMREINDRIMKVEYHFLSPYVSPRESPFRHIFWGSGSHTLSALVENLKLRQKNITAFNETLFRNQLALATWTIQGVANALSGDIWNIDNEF
binder,measurement,setting,value
"C5-hFc-siSOD1m-5'VP (Fc fusion, part only; not given: Fc knob and hole arms, part only) chain, part: EVQLVESGGGVVQPGGSLKLSCVASGTDFSINFIRWYRQAPGKQREFVAGFTATGNTNYADSMKGRFTISRDNTKNAVYLQIDSLKPEDTAVYYCYMLDKWGQGTQVTVSS","IC50 of mSOD1 mRNA downregulation, free uptake on Neuro-2a cells",[1],8.7 nM
same,Ki,[2],494 nM
